# Assay results as given in publication PMC3820651, “Cyclic Nucleotide Dependent Dephosphorylation of Regulator of G-Protein Signaling 18 in Human Platelets” (PLoS ONE, 2013).
# T1: GST-tagged 14-3-3γ (UniProt P61981 1-247)
# T1 construct: 14-3-3γ, in the bacterial expression vector pGEX-4T3; Held on glutathione sepharose 4B as bait; also called GST-14-3-3γ; GST-14-3-3
# T1 sequence (looked up): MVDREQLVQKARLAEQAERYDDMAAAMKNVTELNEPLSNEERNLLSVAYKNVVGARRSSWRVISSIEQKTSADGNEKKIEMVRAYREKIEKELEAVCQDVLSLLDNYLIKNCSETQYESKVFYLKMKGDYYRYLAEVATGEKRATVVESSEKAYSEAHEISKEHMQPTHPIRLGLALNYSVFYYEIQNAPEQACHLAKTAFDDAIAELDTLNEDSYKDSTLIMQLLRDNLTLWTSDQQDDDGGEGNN
# Biological target: T1, GST-tagged 14-3-3γ
# Test: pull-down; glutathione sepharose 4B saturated with purified GST-14-3-3γ, incubated with lysates of transfected HEK293T cells; cells without or with 10 µM forskolin (time course or 15 min), RGS18 alone or co-expressed with myc-spinophilin and/or VSV-PP1 catalytic subunit; precipitates blotted with anti-RGS18 or anti-FLAG
# Conditions: one partner purified
binder,measurement,value
"FLAG-tagged RGS18 (wild type) (natural protein, human, UniProt Q9NS28 1-235, looked up, phosphoserine at S218 present in the basal state; phosphoserine at S49 (s3 band); phosphoserine at S216 after forskolin, Regulator of G-protein signaling 18 (RGS18), 235 amino acids, in pcDNA4/TO; also called wt RGS18; wt-RGS18; source: HEK293T, transfected, in lysate) METTLLFFSQINMCESKEKTFFKLIHGSGKEETSKEAKIRAKEKRNRLSLLVQKPEFHEDTRSSRSGHLAKETRVSPEEAVKWGESFDKLLSHRDGLEAFTRFLKTEFSEENIEFWIACEDFKKSKGPQQIHLKAKAIYEKFIQTDAPKEVNLDFHTKEVITNSITQPTLHSFDAAQSRVYQLMEQDSYTRFLKSDIYLDLMEGRPQRPTNLRRRSRSFTCNEFQDVQSDVAIWL","fold reduction of binding by forskolin against non-treated cells (cells expressing RGS18, spinophilin and PP1)",21 fold
same,fold reduction of binding by forskolin against non-treated cells (cells expressing RGS18 alone),2.6 fold
same,fold reduction of binding by forskolin against non-treated cells (cells expressing RGS18 and PP1),25 fold
same,fold reduction of binding by forskolin against non-treated cells (cells expressing RGS18 and spinophilin),3.7 fold
